How the values were obtained:
[1] = molecular target: the molecule itself; assay: ATR-FTIR; assembled Hfq CTR at 20 mg/mL in D2O, the amyloid state at the start of the lipid experiment
[2] = molecular target: the molecule itself; assay: X-ray fibre diffraction; Hfq11 filaments assembled in water, seen as bundles of approx. 20 nm fibers by TEM; powder diffraction at 270 K, Cu Kα, washed by centrifugation; reflections at 4.6 Å and 7.8–8 Å (cross-β)

Protein	binding result [1]	binding result [2]
SRPVSHHSNNAGGGTSSNYHHGSSAQNTSAQQDSEETE (Hfq (host factor 1), E. coli, C-terminal region; The lipid experiment names its sample only 'assembled Hfq CTR'; also called Hfq 38-residues; Hfq CTR; source: synthetic peptide (Proteogenix), assembled at 4 °C at 20 mg/mL for >1 month (D2O for FTIR)) [Hfq 38-residue C-terminal region peptide]	binds	–
SAQNTSAQQDS (Hfq (host factor 1), E. coli, C-terminal region; Unlabelled synthetic peptide, studied as assembled filaments; also called Hfq 11-residues; 11-residue C-terminal Hfq peptide; source: synthetic peptide (Proteogenix), assembled in water at 4 °C at 20 mg/mL for >1 month) [Hfq11, minimal 11-residue C-terminal assembling motif of E. coli Hfq (Hfq_(87-97))]	–	binds
